Results published in the supplement of paper PMC9170038.

Test system: K4 kissing-loop RNA reporter
Test: apparent KD of K4 kissing-loop reporter; higher = weaker reporter binding
Details: Eterna round: R107; input ligand: theophylline 20 uM
Experimental: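 RNA-MaP round R107: designed RNA switches with theophylline, tryptophan, arginine or FMN aptamers are transcribed on-chip within common flanks. They are titrated with a labelled K4 kissing-loop RNA reporter in RNA-MaP buffer (100 mM Tris pH 7.5, 80 mM KCl, 4 mM MgCl2), without ligand or with the indicated ligand. Median apparent KD per design.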
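Note: bound reporter read as fluorescence of individual clusters on recovered sequencing chips by microscopy, with normalized cluster intensities fitted with a binding model.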

| Sequence | apparent KD of K4 kissing-loop reporter |
| --- | --- |
| UGAUACCAGACUGAUACCAGCAAGUGAUGUUUGCUGAUCUAAAGCAGUCAAAGACUGCCUUGCCCUUGGCAGCAGUCUGGUAUCU [TheoBX 25 #SwitchBubble #StaticStem] | 156 nM |
| ACAGUUGCUAGUGAUACCAGACUAGCACUACGUAAUAUGUCAAGUGAUGUUUGACAACUAGUCCCUUGGCAGCGCGAUACGACUG [#11 K4 Theophylline B Same State] | 269 nM |
| UGUUGAGUGAUGUUCGAUGUAGUUCAUUCAGAGGAUAUAGGGUGGGCUAGAAGGCUGAAAAGUGCUUCGAGUGAUGUUCGAAGAU [Exclusion FMN A GF 7] | 89.5 nM |
| CCAACAACGAGUGAUGUUCGUUGAUCUGAAGGAGCGUCAAUAAUGACAGGUAGGUCGCAGAUAAUUGGAUAUAGGGCAAUAGCUC [Same State Arginine A GF13] | 115 nM |
| AGGUUUUGAUUAGGAUAUGCACUGAGGAGGAGAAUAUAGUGAUGUUAUAUAAGAGGAAGGAGUAGAGUAGAAGGGAUUGAGGUUU [SSFMNB.R] | 172 nM |
| CGCGCGCGCGCGCGCGCGCGCGCGAAUGAUACCAGUAUAUAAGAAUACCCUUGGCAGCAUAAGAAAGAUAUAGUGAUGUUGUAUA [SSTheophA.B] | 422 nM |
| GCCGUACGCAUGGAUACCAGCAAUUAUGCUCGUGAUCUAGUGAUGUUAGUGGCGAAAGUUUGCCCUUGGCAGCCAUGCGUACGGC | 134 nM |
| AGCAUUUUCAGAAGGAGCGUGAAUUAUUCUUAAUUAUAUUAUACGAGUGAUGUUCGUGUUUCACAGGUAGGUCGCUGAUAUAGCA [JR_SSArginiB_Sub004] | 98.3 nM |
| AAGUGAUGUUGUAGUGAUGUUGUGAUGUUGCAGGAUAUAUAGUGAUGUAGAAGGGUAUGUACAGUUUUUUUUUUUGAGUGUUGAU [sscsmullin] | 47.8 nM |
| AGGGCUGAGAGCGAUACCAGCGGAUACUAUAUGGUCCAAUAGAGUGAUGUUUUAUAAAGCCGCCCUUGGCAGCGCAAUCUAUUAG [XTheo-B4] | 982 nM |
| CCUUCUCUUGAUAGUGAUGUUGUCGAGGACAAGGAUAUCAUCUCAAUGAGAAGGUGUCCUUGAUAACAUGGAGGUCUGAAACAGA [Omei KL FMN A Exc C v10] | 365 nM |

Same assay, conditions: Eterna round: R107; input ligand: tryptophan 2.4 mM

| Sequence | apparent KD of K4 kissing-loop reporter |
| --- | --- |
| UGUACCGAGUCAGGAUAUGGCGUCGAAAGACGAAAACCAGUGAUGUUGGAAAUCUGCGAAAGCAGUCCAGAAGGGACUUGGUACU [FmnBS 25 #SwitchBubble #StaticStem #DoubleMagnetSystem] | 251 nM |
| GAUUGUGAUGGAAACAUCGCAAUCUCUGAAGGAGCGCGUGAAAACGCAGGUAGGUCGCAGGACGACUAUGACAGUGAUGUUGUCG [Ex Arginine A K4 3] | 189 nM |
| GCAACUCUCAGUGAUGUUGAGUUAUCGGAAGGAGCGCGUGAAAACGCAGGUAGGUCGCCGAUACAAUGAGUUUCUCGUUGGUUGC [Arginine A K4 21] | 569 nM |
| AGCGUCCCUACGGCCGCCACUGGGAGUGAUGUUCCCAGGUUAGGCCUGAGGAUACUAAGGAUCGCCAGGACCGGGUAGCGACCAU [Azaonbe] | 92.3 nM |
| UAGUCGCUAGUUAGCGACAACGGGUCAGAUACCAGACUAGCGAUAGUCCCUUGGCAGCUGAAGUUCAGUGAUGUUGAACGGAUUA [Theo A SS t10] | 207 nM |
| GCGUCAUCGAAAGGAUAUGGAGUAGUGAUGUUGAUCCAUAUGCUCACGCAUAGCCGAGAACAUCGACCAGAAGGUUCAAGAACUG [theeternabot_exclusion_KL_FMN_B_41] | 459 nM |
| UGUACCGAGUCAGGAUAUGACGACUAGUCAAAGACUGGUCGAAAAUCCAGUGAUGUUGGAAAUAAAUCAGAAGGGACUUGGUACU [FmnBS 16 #SwitchBubble #StaticStem] | 296 nM |
| CUCGUGGGUUUGAGAGGGCUUGUGGGAAGUGAGGAUAUUUAGGGAGAAAGAAGGCACUAUAGAAUAUAGUGAUGUUAUGUAAGGG [SSFMNA.O] | 348 nM |
| AGAGGAAAUAGAAGGAGCGGCGCCAGUGAUGUUGGAUGCCGCGGGUGAAUCAGGUCAUAGUGCCAGGUAGGUCGCUAUUUCAGCG [Larebeve] | 138 nM |
| AUUAAUUUCAGAGGAUAUCGUAUUUAUAUUUUAUCUUUCCAUAUUUGCAGUGAUGUUGCAUUAAUUCGAGAAGGCUGAUUUAUAA [JR_ExcFMNB_Sub008] | 55.5 nM |
| AGAGAUAUAUGAGGAUAUGAGUUAGUUAAUGAGUGAGUUUUAGUGUUGUUUGGUUAGUGAUGUUAUUUAGAAGGCGUGAGUGAUG [ttytmullin] | 75.9 nM |
| GCAGGACGAGGAGGAGGAUGAAUUACUGAAGGAGCGCAUAUGGUUGCAGGUAGGUCGCGGUAAACAAGUAUAGUGAUGUUAUAUC [SSArgA.P] | 584 nM |
| GUAGACAGGCUGCGAACCUAGUCUACAGACUAGGAUAUCAGGAAACUGAGAAGGAGUCUAGUUGCAGUGAUGUUGCAAGAAUAAU [KL-SSFMN-A25] | 84.7 nM |
| CCAUCGCUAUUCGAUACCAGCUACUUAGUGAUGUUAAGUUUAAAUCCACUGUAGGUGGAAAGCCCUUGGCAGCGAAUAGUGAUGG [Theophylline B K4 24] | 245 nM |
| GCGCGUCAUGUCGGCGGUGACUACGCCGAUACCAGCCGGGAAACCGGCCCUUGGCAGCGGCGCGCCGGAGUGAUGUUCCGACAGA [#2 Exclusion - Theophylline A Attempt #3 (HarryS)] | 109 nM |
| CAUGGACUUCCAGUGUAUCCAUGACUGGAUACCAGUCAGGAAACUGACCCUUGGCAGCCAGAACUGGAAGUGAUGUUUCCAGUAA [Design8] | 240 nM |
| AAAUUUUCGAGUGAUGUUCGAAUAAUUUCAGAGGAUAUGCUUAAAAGCAGAAGGCUGUAUUACUAUUUGUUAUUAAAUUUUAUAA [JR_ExcFMNA_Sub001] | 86.2 nM |
| CUCACAGUGAUGUUGUGGGCCGAGAGUGAUACCAGCCGUAUUUGUGGCCCUUGGCAGCGCAAAAGCCGAGUGAUGUUCGAAUCGG [Same State Theophylline A GF 24] | 192 nM |
| UGUAUAGUCAGAAGGAGCGUGAACGAUCGAGAAUCGAUCAGCCAGUGAUGUUGGCAGGAAUCACAGGUAGGUCGCUGACUGUACA [Arg B SS t3] | 208 nM |
| GGUAGCAUGGCGGCCGCCACUUUGCACCUUUUCUUUUCUUUUGGUGCUUCACGAGUGAUGUUCGUAAGGACCGGGCCAUGCUACC | 195 nM |
| GCCGUAGAUGGAAGGAGCGUGUCCAAACCUCAUUCAUGUACACACGAGUGAUGUUCGUGUACACAGGUAGGUCGCCAUCUACGGC | 363 nM |
| UGAUUUAACUGAAGGAGCGGCAAUAGAGAAGGAAAUAUAGUGAUGUUAUAUAAGAGAGAGAGCCAGGUAGGUCGCAGAGGGAGGA [ExArgB.F] | 151 nM |

| Sequence | apparent KD of K4 kissing-loop reporter |
| --- | --- |
| AGUAAUGAGUGAUGUUCAAAUAGUAAGGAUACCAGUAAUUCAAAAUGCCCUUGGCAGCUUAACGCUACCAAUAGAUAAAUAAUGG [Theophilline A V2 (+2A)] | 96.8 nM |
| ACCUGUAGUGAUGUUACUGGUGGUUAGGAAGGAGCGCCCGCGUGGGCAGGUAGGUCGCCUAAGCUAUGUGGGAAACCGCAUAUUG [#14 K4 Arginine A Same State] | 93.3 nM |
| ACGUAGUUCUAGGAUACCAGCCAAGGCCCAGGACAAAAGUCCUGGGUCGCCAGUGAUGUUGGCCCUUGGCAGCCUAGAACUACGA [Omei KL Theo B Exc B v11] | 444 nM |
| AAAUUUAAUAUAUUUAAUUAAUUAUGUGAUACCAGACAUUUAUAAGUCCCUUGGCAGCACUUUGCAGUGAUGUUGCUUAUAAUAA [JR_SSTheophyA_Sub014] | 83.8 nM |
| UGGCCUUAAAUUCUAGGAUUAGCGACGUACAAGGAUAUUCGUCAUCGAAGAAGGUGUAGCUAGGAGAGUGAUGUUUUCCAUCGCC [theeternabot_sameState_KL_FMN_A_15] | 504 nM |
| AAUAAGGAGUGAUGUUCCAAGUGAUGUUAACGAGGACCGGUACGGCCGCCACUCGAUACGGCCGGAAAAUAAAAUAAAAUAAAAU [Same State - Tryptophan A (Freestyle 1)] | 124 nM |
| AGGAGUGAUGUUCCUACAUAGACGGUCCGACGAGGACCGGUACGGCCGCCACUCGCGUCCCAGUGAUGUUGGGAUUCAACGUACA [Exclusion Tryptophan A Gf 15] | 122 nM |
| AGCUCAGAGUGACUCGAUAAGAGUCACAAACGAGGACCGGUACGGCCGCCACUCGAAAUAACGAGAGUGAUGUUCUCACUGAGCA [FiskerMod 11 - Jieux - Same State Tryptophan A] | 378 nM |
| UGUACCGAUUCAGGAUAUGUCGUCGAAAGACGAAAUGGAGUGAUGUUCCUUAAACUGCGAAAGCAGACAGAAGGGAAUUGGUACU [FmnBS 29 U9+A77] | 284 nM |
| UAACUUGCAGUGAUGUUGCAAGAACUGGAUACCAGCAUGGAAACAUGCCCUUGGCAGCCAGAAGCUGGCUGACUGCAAGGUCAGC [Design4] | 123 nM |
| UGAUACCAGACUGAUACCAGCAAGUGAUGUUUGCUGAUCUAAAGCAGUCAAAGACUGCCUUGCCCUUGGCAGCAGUCUGGUAUCU [TheoBX 25 #SwitchBubble #StaticStem] | 81.1 nM |
| ACAGUUGCUAGUGAUACCAGACUAGCACUACGUAAUAUGUCAAGUGAUGUUUGACAACUAGUCCCUUGGCAGCGCGAUACGACUG [#11 K4 Theophylline B Same State] | 225 nM |
| UGUUGAGUGAUGUUCGAUGUAGUUCAUUCAGAGGAUAUAGGGUGGGCUAGAAGGCUGAAAAGUGCUUCGAGUGAUGUUCGAAGAU [Exclusion FMN A GF 7] | 91.1 nM |
| CCAACAACGAGUGAUGUUCGUUGAUCUGAAGGAGCGUCAAUAAUGACAGGUAGGUCGCAGAUAAUUGGAUAUAGGGCAAUAGCUC [Same State Arginine A GF13] | 102 nM |
| AGGUUUUGAUUAGGAUAUGCACUGAGGAGGAGAAUAUAGUGAUGUUAUAUAAGAGGAAGGAGUAGAGUAGAAGGGAUUGAGGUUU [SSFMNB.R] | 188 nM |
| CGCGCGCGCGCGCGCGCGCGCGCGAAUGAUACCAGUAUAUAAGAAUACCCUUGGCAGCAUAAGAAAGAUAUAGUGAUGUUGUAUA [SSTheophA.B] | 231 nM |
| GCCGUACGCAUGGAUACCAGCAAUUAUGCUCGUGAUCUAGUGAUGUUAGUGGCGAAAGUUUGCCCUUGGCAGCCAUGCGUACGGC | 182 nM |
| AGCAUUUUCAGAAGGAGCGUGAAUUAUUCUUAAUUAUAUUAUACGAGUGAUGUUCGUGUUUCACAGGUAGGUCGCUGAUAUAGCA [JR_SSArginiB_Sub004] | 45.5 nM |
| AAGUGAUGUUGUAGUGAUGUUGUGAUGUUGCAGGAUAUAUAGUGAUGUAGAAGGGUAUGUACAGUUUUUUUUUUUGAGUGUUGAU [sscsmullin] | 66.2 nM |
| AGGGCUGAGAGCGAUACCAGCGGAUACUAUAUGGUCCAAUAGAGUGAUGUUUUAUAAAGCCGCCCUUGGCAGCGCAAUCUAUUAG [XTheo-B4] | 453 nM |
| CCUUCUCUUGAUAGUGAUGUUGUCGAGGACAAGGAUAUCAUCUCAAUGAGAAGGUGUCCUUGAUAACAUGGAGGUCUGAAACAGA [Omei KL FMN A Exc C v10] | 420 nM |
